The chains are these.
B1: HDV Ribozyme (parent)
chain: GGCCGGCAUGGUCCCAGCCUCCUCGCUGGCGCCGGCUGGGCAACAUUCCGAGGGGACCGUCCCCUCGGUAAUGGCGAAUGGGACCCA

This data set covers variants of B1. In words: self-cleavage, relative activity (ratio to wild type); higher = more cleavage; co-transcriptional.
For G76U G81C, the self-cleavage worked out at 0.628.
In the case of G74C C75U, the self-cleavage came to 0.108.
For G74C C75A, the self-cleavage came to 0.252.
The result for A77C G81A reads 0.173.
The result for A77C G81U reads 0.116.
On to C75A A77C, for which the self-cleavage stood at 0.237.
Under C75A A77U stands 0.119; under G76A G81A, 0.332; under C75U G82U, 0.296.
Take A78G C86U: the self-cleavage came to 0.643.
Under A78G C86A stands 0.727.
As to A77U C86G, the self-cleavage amounted to 0.623.
Consider G74U A83C, for which the self-cleavage is 0.271.
The result for G74U A83G reads 0.256; that for A77U A78U, 0.259; that for C75A A78U, 0.0852.
For G73U A83C, the self-cleavage was 0.17.
A77G G80U: the self-cleavage came out at 0.244.
As for C75G G82C, the self-cleavage worked out at 0.271.
Take A77C A78U: the self-cleavage was determined as 0.208.
The result for C75A G76C reads 0.166; that for G76A C85A, 0.904.
As to G76A C85G, the self-cleavage worked out at 0.962.
Turning to A77C C84G, the self-cleavage was 0.317.
Turning to G76U G82A, the self-cleavage was found to be 0.343.
Consider G76U G82C, for which the self-cleavage is 0.277.
Regarding C75U A87C, the self-cleavage amounted to 0.161.
The result for C75U A87U reads 0.185; that for A77G G81U, 0.348.
On to A77G G81C, for which the self-cleavage stood at 0.256.
In the case of A77G G81A, the self-cleavage is 0.287.
For U72G G74A, the self-cleavage was 0.431.
In the case of U72G A87U, the self-cleavage stood at 0.735.
U72G A87C: the self-cleavage worked out at 0.709.
Under A77G C86U stands 0.886; under G73A A78C, 0.265; under G73C G82A, 0.175.
Under G73C G82U stands 0.0707; under G73C G82C, 0.175.
Consider G74U G82U, for which the self-cleavage was 0.281.
In the case of G74U G82C, the self-cleavage came to 0.0723.
With G74U A77G, the self-cleavage amounted to 0.312.
For G73U C85G, the self-cleavage was 0.437.
The result for G73U C85A reads 0.397; that for G73A A77C, 0.161; that for G74U U79C, 0.0963.
In the case of G73C A77C, the self-cleavage was determined as 0.287.
For G73C A77U, the self-cleavage came out at 0.151.
Turning to G74A C84U, the self-cleavage was determined as 0.446.
Consider G73U G82U, for which the self-cleavage was 0.224.
On to G73U G82C, for which the self-cleavage was 0.157.
Under G73U G81A stands 0.178; under G73U G81C, 0.115; under G74U G76A, 0.453.
On to G74C C86A, for which the self-cleavage turned out to be 0.201.
On to G74C C86U, for which the self-cleavage was determined as 0.189.
Consider G74C C86G, for which the self-cleavage was 0.201.
Take C75G C86A: the self-cleavage was 0.147.
Regarding G76A C84A, the self-cleavage turned out to be 0.958.
On to G74A C85A, for which the self-cleavage amounted to 0.657.
Under A78G U79G stands 0.268; under G73C C85A, 0.231; under G74A C75A, 0.0528.
For the variant G74A C75G, the self-cleavage was determined as 0.17.
With U72G C86U, the self-cleavage was 0.705.
The result for C75U A78U reads 0.264; that for C75U A78G, 0.214.
For the variant A78C A87U, the self-cleavage was 0.199.
In the case of A78C A87G, the self-cleavage turned out to be 0.127.
For the variant A78C A87C, the self-cleavage came to 0.199.
As for G74C G76U, the self-cleavage is 0.175.
Under G74C G76C stands 0.185; under G74C G76A, 0.208; under A77U G81A, 0.185.
On to A77U G81U, for which the self-cleavage was 0.237.
Under G74A U79G stands 0.356.
The result for C75A U79C reads 0.0707; that for G76U A87U, 1.04; that for G73C A83C, 0.264.
In the case of G73C A83U, the self-cleavage was determined as 0.348.
Consider G73C A83G, for which the self-cleavage amounted to 0.17.
With G76C G80A, the self-cleavage is 0.394.
With G76C G80C, the self-cleavage amounted to 0.093.
On to C75A A87U, for which the self-cleavage was determined as 0.111.
For A78G A87C, the self-cleavage came out at 0.452.
Under A78G A87U stands 0.862.
Under A77G A83C stands 0.208; under A77G A83U, 0.635.
G76U A78C: the self-cleavage is 0.219.
Consider G76U A78U, for which the self-cleavage worked out at 0.475.
G74A A83G: the self-cleavage was 0.205.
Consider G74A A83C, for which the self-cleavage turned out to be 0.232.
Regarding G74A A77C, the self-cleavage is 0.231.
For G73C G74C, the self-cleavage stood at 0.133.
On to G73A G74C, for which the self-cleavage was 0.176.
Consider G73A G74A, for which the self-cleavage worked out at 0.248.
Regarding G73A G74U, the self-cleavage amounted to 0.174.
Under G73C G80U stands 0.141.
With G74A G81C, the self-cleavage came out at 0.218.
Under G76A A87G stands 1.01; under A78G C84U, 0.53; under A78G C84A, 0.571.
For the variant G74A C86U, the self-cleavage is 0.604.
The result for U72G A83U reads 0.166; that for C75G A83C, 0.489.
With C75G A83U, the self-cleavage turned out to be 0.201.
The result for A78U G82A reads 0.109; that for G76A A78C, 0.242; that for G76A A78U, 0.673.
On to G76A A78G, for which the self-cleavage was 0.816.
Under A77G A78G stands 0.277; under A77G A78U, 0.266; under A77G A78C, 0.172.
The result for C75G C84U reads 0.0978; that for C75G C84A, 0.259.
For G73A G76U, the self-cleavage was found to be 0.906.
Regarding A78U G81U, the self-cleavage was 0.269.
G73C A78U: the self-cleavage was found to be 0.155.
On to G73C A78C, for which the self-cleavage was found to be 0.0773.
Take A77C A83U: the self-cleavage is 0.312.
Under A77C A83G stands 0.156; under G73A G82A, 0.18.
On to G73A G82U, for which the self-cleavage worked out at 0.151.
For the variant G73U G74A, the self-cleavage amounted to 0.172.
For G74C A77C, the self-cleavage is 0.133.
In the case of A78G A83U, the self-cleavage came out at 0.0437.
Under A78G A83G stands 0.445; under C75A, 0.171.
As for C75G, the self-cleavage turned out to be 0.159.
The result for C75U reads 0.19; that for G73C U79C, 0.161.
Consider G73C U79G, for which the self-cleavage worked out at 0.107.
With G76U G80C, the self-cleavage turned out to be 0.204.
For the variant G76U G80A, the self-cleavage was found to be 0.595.
On to G76U G80U, for which the self-cleavage came out at 0.407.
The result for C75A A83G reads 0.0567; that for C75A A83U, 0.151.
For C75A A83C, the self-cleavage amounted to 0.181.
The result for G74U A78G reads 0.185; that for G74A G80A, 0.182.
In the case of G74A G80U, the self-cleavage is 0.124.
For G74A G80C, the self-cleavage is 0.167.
Under C75G G80U stands 0.104; under C75G G80A, 0.11.
In the case of G76C A78G, the self-cleavage amounted to 0.944.
Regarding G76C A78C, the self-cleavage turned out to be 0.192.
G73C C75G: the self-cleavage is 0.0573.
G73C C75A: the self-cleavage came to 0.173.
As to U72G C84A, the self-cleavage was found to be 0.6.
Under U72G C84G stands 0.214; under U72G G81A, 0.302.
Consider U72G G81U, for which the self-cleavage turned out to be 0.178.
Under G73U G80A stands 0.0839; under C75U G76A, 0.0852.
With C75U G76C, the self-cleavage was found to be 0.271.
For A77C A87C, the self-cleavage was 0.391.
For G73A C86U, the self-cleavage was found to be 0.831.
As for G73A C86G, the self-cleavage is 0.609.
As to A77U G82A, the self-cleavage worked out at 0.271.
As for A77U G82U, the self-cleavage was 0.0811.
Take A78U C86A: the self-cleavage worked out at 0.208.
As to A78U C86U, the self-cleavage amounted to 0.309.
In the case of A78U C86G, the self-cleavage worked out at 0.163.
As to G73A C75A, the self-cleavage came to 0.246.
For G74U A87G, the self-cleavage was 0.473.
On to G74U A87C, for which the self-cleavage was 0.554.
On to G76C A83C, for which the self-cleavage stood at 0.201.

(Values after the RNAGym collection of RNA variant scans (doi:10.7554/elife.80360).)
